The target of this assay is human myc-tagged essential myosin light chain (ELC) (human) (UniProt P08590). The experiment in a line: co-IP; human myc-tagged ELC overexpressed in HEK293 cells, Myc-Trap magnetic beads, 1 mg lysate over night at 4 °C, immunoblot for endogenous kinases; basal or ionophore (ionomycin 1-5 µM, 4 mM CaCl2, 10 min) stimulation. (A western blot detects proteins with antibodies after separation by electrophoresis.)

Results on one molecule are retold here after paper PMC9585074.

Sequence of UniProt P08590 (P08590 whole entry): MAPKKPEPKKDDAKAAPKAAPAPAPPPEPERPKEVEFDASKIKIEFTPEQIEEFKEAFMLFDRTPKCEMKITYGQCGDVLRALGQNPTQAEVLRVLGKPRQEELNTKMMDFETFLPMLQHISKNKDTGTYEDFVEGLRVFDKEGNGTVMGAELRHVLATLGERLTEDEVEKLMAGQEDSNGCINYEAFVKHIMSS

B1: NIMA-related kinase 9 (NEK9), human, endogenous in HEK293 cells (enzyme)
chain: MSVLGEYERHCDSINSDFGSESGGCGDSSPGPSASQGPRAGGGAAEQEELHYIPIRVLGRGAFGEATLYRRTEDDSLVVWKEVDLTRLSEKERRDALNEIVILALLQHDNIIAYYNHFMDNTTLLIELEYCNGGNLYDKILRQKDKLFEEEMVVWYLFQIVSAVSCIHKAGILHRDIKTLNIFLTKANLIKLGDYGLAKKLNSEYSMAETLVGTPYYMSPELCQGVKYNFKSDIWAVGCVIFELLTLKRTFDATNPLNLCVKIVQGIRAMEVDSSQYSLELIQMVHSCLDQDPEQRPTADELLDRPLLRKRRREMEEKVTLLNAPTKRPRSSTVTEAPIAVVTSRTSEVYVWGGGKSTPQKLDVIKSGCSARQVCAGNTHFAVVTVEKELYTWVNMQGGTKLHGQLGHGDKASYRQPKHVEKLQGKAIRQVSCGDDFTVCVTDEGQLYAFGSDYYGCMGVDKVAGPEVLEPMQLNFFLSNPVEQVSCGDNHVVVLTRNKEVYSWGCGEYGRLGLDSEEDYYTPQKVDVPKALIIVAVQCGCDGTFLLTQSGKVLACGLNEFNKLGLNQCMSGIINHEAYHEVPYTTSFTLAKQLSFYKIRTIAPGKTHTAAIDERGRLLTFGCNKCGQLGVGNYKKRLGINLLGGPLGGKQVIRVSCGDEFTIAATDDNHIFAWGNGGNGRLAMTPTERPHGSDICTSWPRPIFGSLHHVPDLSCRGWHTILIVEKVLNSKTIRSNSSGLSIGTVFQSSSPGGGGGGGGGEEEDSQQESETPDPSGGFRGTMEADRGMEGLISPTEAMGNSNGASSSCPGWLRKELENAEFIPMPDSPSPLSAAFSESEKDTLPYEELQGLKVASEAPLEHKPQVEASSPRLNPAVTCAGKGTPLTPPACACSSLQVEVERLQGLVLKCLAEQQKLQQENLQIFTQLQKLNKKLEGGQQVGMHSKGTQTAKEEMEMDPKPDLDSDSWCLLGTDSCRPSL
B1 returned an averaged intensity of precipitated NEK9 normalized to actin of input, before doubling the ionophore concentration of 0.35 and an averaged intensity of precipitated NEK9 normalized to actin of input, doubled ionophore concentration of 1.01.
